Numbered stars: 1 amine (or outer) side, 2 acyl side, 3 side chain; on linkers, the order of the positions; unused ones are H or OH. Bridge positions count the residues as written; N and C are the ends. Side chains are listed from the residue outwards. Ends that are not written are not given here. * marks the point of attachment. C20 diacid = O=C(O)CCCCCCCCCCCCCCCCCCC(=O)*; γGlu = O=C(O)[C@H](CCC(=O)[*:2])N[*:1]
T1: human amylin receptor (human, UniProt P30988 25-474; O60896 24-148, limits assumed)
T1 construct: whole, on cells; Calcitonin receptor plus RAMP-3 gives the amylin 3(a) receptor; membranes of Amylin 3(a)/CRE-luc cells were used; also called hAmylin-R; hAmylinR
T1 sequence (looked up) 1: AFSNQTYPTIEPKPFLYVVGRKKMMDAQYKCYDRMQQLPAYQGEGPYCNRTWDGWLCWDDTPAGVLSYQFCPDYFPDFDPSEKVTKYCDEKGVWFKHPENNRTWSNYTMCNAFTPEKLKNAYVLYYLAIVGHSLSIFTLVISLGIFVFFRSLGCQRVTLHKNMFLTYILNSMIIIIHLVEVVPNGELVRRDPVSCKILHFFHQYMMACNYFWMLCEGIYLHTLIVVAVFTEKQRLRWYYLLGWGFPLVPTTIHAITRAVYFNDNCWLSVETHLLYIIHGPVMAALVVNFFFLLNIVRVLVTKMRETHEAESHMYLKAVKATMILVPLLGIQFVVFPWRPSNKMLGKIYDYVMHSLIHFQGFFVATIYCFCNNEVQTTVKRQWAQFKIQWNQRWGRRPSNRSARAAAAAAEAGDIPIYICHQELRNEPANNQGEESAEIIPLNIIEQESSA
T1 sequence (looked up) 2: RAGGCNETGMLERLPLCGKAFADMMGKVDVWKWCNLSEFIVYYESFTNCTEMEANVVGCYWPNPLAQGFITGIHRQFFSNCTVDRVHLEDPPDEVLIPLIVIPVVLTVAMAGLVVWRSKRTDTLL


What follows are binders tested against T1, human amylin receptor (assay: SPA competition binding, displacement of 125I-rat amylin from membranes with human amylin 3(a) receptor (Assay V)).
Outline: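 SPA beads + BHK amylin 3(a)/CRE-luc membranes, 35 ng/μL final; buffer 50 mM Hepes pH 7.4, 1 mM CaCl2, 5 mM MgCl₂, 0.1% OA, 0.02% Tween20. 120 min, 25° C, shaken; scintillation count. IC₅₀ by one-site binding competition fit, taken as receptor affinity.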

Binder | IC50 [nM]
K([γGlu-C20 diacid])CNTATCATQRLADFLRHSSPNFGAIPSSTNVGPETY-NH2 (disulfide 2-7; N-terminus assumed; SMILES CC[C@H](C)[C@H](NC(=O)[C@H](C)NC(=O)CNC(=O)[C@H](Cc1ccccc1)NC(=O)[C@H](CC(N)=O)NC(=O)[C@@H]1CCCN1C(=O)[C@H](CO)NC(=O)[C@H](CO)NC(=O)[C@H](Cc1c[nH]cn1)NC(=O)[C@H](CCCNC(=N)N)NC(=O)[C@H](CC(C)C)NC(=O)[C@H](Cc1ccccc1)NC(=O)[C@H](CC(=O)O)NC(=O)[C@H](C)NC(=O)[C@H](CC(C)C)NC(=O)[C@H](CCCNC(=N)N)NC(=O)[C@H](CCC(N)=O)NC(=O)[C@@H](NC(=O)[C@H](C)NC(=O)[C@@H]1CSSC[C@H](NC(=O)[C@@H](N)CCCCNC(=O)CC[C@H](NC(=O)CCCCCCCCCCCCCCCCCCC(=O)O)C(=O)O)C(=O)N[C@@H](CC(N)=O)C(=O)N[C@@H]([C@@H](C)O)C(=O)N[C@@H](C)C(=O)N[C@@H]([C@@H](C)O)C(=O)N1)[C@@H](C)O)C(=O)N1CCC[C@H]1C(=O)N[C@@H](CO)C(=O)N[C@@H](CO)C(=O)N[C@H](C(=O)N[C@@H](CC(N)=O)C(=O)N[C@H](C(=O)NCC(=O)N1CCC[C@H]1C(=O)N[C@@H](CCC(=O)O)C(=O)N[C@H](C(=O)N[C@@H](Cc1ccc(O)cc1)C(N)=O)[C@@H](C)O)C(C)C)[C@@H](C)O, also called 14D, 17R, 21P, 27P, 34P, 35E) | 0.196
K([γGlu-C20 diacid])CNTATCATQRLAEFLRHSSPNFGAIPSSTNVGRETY-NH2 (disulfide 2-7; N-terminus assumed; SMILES CC[C@H](C)[C@H](NC(=O)[C@H](C)NC(=O)CNC(=O)[C@H](Cc1ccccc1)NC(=O)[C@H](CC(N)=O)NC(=O)[C@@H]1CCCN1C(=O)[C@H](CO)NC(=O)[C@H](CO)NC(=O)[C@H](Cc1c[nH]cn1)NC(=O)[C@H](CCCNC(=N)N)NC(=O)[C@H](CC(C)C)NC(=O)[C@H](Cc1ccccc1)NC(=O)[C@H](CCC(=O)O)NC(=O)[C@H](C)NC(=O)[C@H](CC(C)C)NC(=O)[C@H](CCCNC(=N)N)NC(=O)[C@H](CCC(N)=O)NC(=O)[C@@H](NC(=O)[C@H](C)NC(=O)[C@@H]1CSSC[C@H](NC(=O)[C@@H](N)CCCCNC(=O)CC[C@H](NC(=O)CCCCCCCCCCCCCCCCCCC(=O)O)C(=O)O)C(=O)N[C@@H](CC(N)=O)C(=O)N[C@@H]([C@@H](C)O)C(=O)N[C@@H](C)C(=O)N[C@@H]([C@@H](C)O)C(=O)N1)[C@@H](C)O)C(=O)N1CCC[C@H]1C(=O)N[C@@H](CO)C(=O)N[C@@H](CO)C(=O)N[C@H](C(=O)N[C@@H](CC(N)=O)C(=O)N[C@H](C(=O)NCC(=O)N[C@@H](CCCNC(=N)N)C(=O)N[C@@H](CCC(=O)O)C(=O)N[C@H](C(=O)N[C@@H](Cc1ccc(O)cc1)C(N)=O)[C@@H](C)O)C(C)C)[C@@H](C)O, also called 14E, 17R, 21P, 27P, 34R, 35E) | 0.232
K([γGlu-C20 diacid])CNTATCATQRLAEFLRHSSPNFGAIPSSTNVGHETY-NH2 (disulfide 2-7; N-terminus assumed; SMILES CC[C@H](C)[C@H](NC(=O)[C@H](C)NC(=O)CNC(=O)[C@H](Cc1ccccc1)NC(=O)[C@H](CC(N)=O)NC(=O)[C@@H]1CCCN1C(=O)[C@H](CO)NC(=O)[C@H](CO)NC(=O)[C@H](Cc1c[nH]cn1)NC(=O)[C@H](CCCNC(=N)N)NC(=O)[C@H](CC(C)C)NC(=O)[C@H](Cc1ccccc1)NC(=O)[C@H](CCC(=O)O)NC(=O)[C@H](C)NC(=O)[C@H](CC(C)C)NC(=O)[C@H](CCCNC(=N)N)NC(=O)[C@H](CCC(N)=O)NC(=O)[C@@H](NC(=O)[C@H](C)NC(=O)[C@@H]1CSSC[C@H](NC(=O)[C@@H](N)CCCCNC(=O)CC[C@H](NC(=O)CCCCCCCCCCCCCCCCCCC(=O)O)C(=O)O)C(=O)N[C@@H](CC(N)=O)C(=O)N[C@@H]([C@@H](C)O)C(=O)N[C@@H](C)C(=O)N[C@@H]([C@@H](C)O)C(=O)N1)[C@@H](C)O)C(=O)N1CCC[C@H]1C(=O)N[C@@H](CO)C(=O)N[C@@H](CO)C(=O)N[C@H](C(=O)N[C@@H](CC(N)=O)C(=O)N[C@H](C(=O)NCC(=O)N[C@@H](Cc1c[nH]cn1)C(=O)N[C@@H](CCC(=O)O)C(=O)N[C@H](C(=O)N[C@@H](Cc1ccc(O)cc1)C(N)=O)[C@@H](C)O)C(C)C)[C@@H](C)O, also called 14E, 17R, 21P, 27P, 34H, 35E) | 0.387
K([γGlu-C20 diacid])CNTATCATQRLAEFLRHSSPNFGAIPSSTNVGPRTY-NH2 (disulfide 2-7; N-terminus assumed; SMILES CC[C@H](C)[C@H](NC(=O)[C@H](C)NC(=O)CNC(=O)[C@H](Cc1ccccc1)NC(=O)[C@H](CC(N)=O)NC(=O)[C@@H]1CCCN1C(=O)[C@H](CO)NC(=O)[C@H](CO)NC(=O)[C@H](Cc1c[nH]cn1)NC(=O)[C@H](CCCNC(=N)N)NC(=O)[C@H](CC(C)C)NC(=O)[C@H](Cc1ccccc1)NC(=O)[C@H](CCC(=O)O)NC(=O)[C@H](C)NC(=O)[C@H](CC(C)C)NC(=O)[C@H](CCCNC(=N)N)NC(=O)[C@H](CCC(N)=O)NC(=O)[C@@H](NC(=O)[C@H](C)NC(=O)[C@@H]1CSSC[C@H](NC(=O)[C@@H](N)CCCCNC(=O)CC[C@H](NC(=O)CCCCCCCCCCCCCCCCCCC(=O)O)C(=O)O)C(=O)N[C@@H](CC(N)=O)C(=O)N[C@@H]([C@@H](C)O)C(=O)N[C@@H](C)C(=O)N[C@@H]([C@@H](C)O)C(=O)N1)[C@@H](C)O)C(=O)N1CCC[C@H]1C(=O)N[C@@H](CO)C(=O)N[C@@H](CO)C(=O)N[C@H](C(=O)N[C@@H](CC(N)=O)C(=O)N[C@H](C(=O)NCC(=O)N1CCC[C@H]1C(=O)N[C@@H](CCCNC(=N)N)C(=O)N[C@H](C(=O)N[C@@H](Cc1ccc(O)cc1)C(N)=O)[C@@H](C)O)C(C)C)[C@@H](C)O, also called 14E, 17R, 21P, 27P, 34P, 35R) | 0.163
K([γGlu-C20 diacid])CNTATCATQRLAEFLRHSSPNFGAIPSSTNVGPETY-NH2 (disulfide 2-7; N-terminus assumed; SMILES CC[C@H](C)[C@H](NC(=O)[C@H](C)NC(=O)CNC(=O)[C@H](Cc1ccccc1)NC(=O)[C@H](CC(N)=O)NC(=O)[C@@H]1CCCN1C(=O)[C@H](CO)NC(=O)[C@H](CO)NC(=O)[C@H](Cc1c[nH]cn1)NC(=O)[C@H](CCCNC(=N)N)NC(=O)[C@H](CC(C)C)NC(=O)[C@H](Cc1ccccc1)NC(=O)[C@H](CCC(=O)O)NC(=O)[C@H](C)NC(=O)[C@H](CC(C)C)NC(=O)[C@H](CCCNC(=N)N)NC(=O)[C@H](CCC(N)=O)NC(=O)[C@@H](NC(=O)[C@H](C)NC(=O)[C@@H]1CSSC[C@H](NC(=O)[C@@H](N)CCCCNC(=O)CC[C@H](NC(=O)CCCCCCCCCCCCCCCCCCC(=O)O)C(=O)O)C(=O)N[C@@H](CC(N)=O)C(=O)N[C@@H]([C@@H](C)O)C(=O)N[C@@H](C)C(=O)N[C@@H]([C@@H](C)O)C(=O)N1)[C@@H](C)O)C(=O)N1CCC[C@H]1C(=O)N[C@@H](CO)C(=O)N[C@@H](CO)C(=O)N[C@H](C(=O)N[C@@H](CC(N)=O)C(=O)N[C@H](C(=O)NCC(=O)N1CCC[C@H]1C(=O)N[C@@H](CCC(=O)O)C(=O)N[C@H](C(=O)N[C@@H](Cc1ccc(O)cc1)C(N)=O)[C@@H](C)O)C(C)C)[C@@H](C)O, also called 14E, 17R, 21P, 27P, 34P, 35E) | 0.14
K([γGlu-C20 diacid])CNTATCATQRLAEFLRHSSPNFGAIPSSTNVGPHTY-NH2 (disulfide 2-7, also called 14E, 17R, 21P, 27P, 34P, 35H) | 0.179
K([γGlu-C20 diacid])CNTATCATQRLAEFLRHSSPNFGAIPSSTNVGPNTP-NH2 (disulfide 2-7; N-terminus assumed; SMILES CC[C@H](C)[C@H](NC(=O)[C@H](C)NC(=O)CNC(=O)[C@H](Cc1ccccc1)NC(=O)[C@H](CC(N)=O)NC(=O)[C@@H]1CCCN1C(=O)[C@H](CO)NC(=O)[C@H](CO)NC(=O)[C@H](Cc1c[nH]cn1)NC(=O)[C@H](CCCNC(=N)N)NC(=O)[C@H](CC(C)C)NC(=O)[C@H](Cc1ccccc1)NC(=O)[C@H](CCC(=O)O)NC(=O)[C@H](C)NC(=O)[C@H](CC(C)C)NC(=O)[C@H](CCCNC(=N)N)NC(=O)[C@H](CCC(N)=O)NC(=O)[C@@H](NC(=O)[C@H](C)NC(=O)[C@@H]1CSSC[C@H](NC(=O)[C@@H](N)CCCCNC(=O)CC[C@H](NC(=O)CCCCCCCCCCCCCCCCCCC(=O)O)C(=O)O)C(=O)N[C@@H](CC(N)=O)C(=O)N[C@@H]([C@@H](C)O)C(=O)N[C@@H](C)C(=O)N[C@@H]([C@@H](C)O)C(=O)N1)[C@@H](C)O)C(=O)N1CCC[C@H]1C(=O)N[C@@H](CO)C(=O)N[C@@H](CO)C(=O)N[C@H](C(=O)N[C@@H](CC(N)=O)C(=O)N[C@H](C(=O)NCC(=O)N1CCC[C@H]1C(=O)N[C@@H](CC(N)=O)C(=O)N[C@H](C(=O)N1CCC[C@H]1C(N)=O)[C@@H](C)O)C(C)C)[C@@H](C)O, also called 14E, 17R, 21P, 27P, 34P, 37P) | 0.214

Source: US20140087995A1 (published 2014)
